Test results: patent US9968687B2, “Anti-DLL3 antibody drug conjugates” (AbbVie Stemcentrx LLC, priority 2013, dated 2018)

Molecular target: T1, recombinant human DLL3-Flag (Homo sapiens, UniProt Q9NYJ7)
T1 construct: Based on the apparent size of the DLL3 antigen (where the ECD is approximately 56 kD); Flag; purchased Adipogen International
T1 sequence (Q9NYJ7 27-492 limits assumed): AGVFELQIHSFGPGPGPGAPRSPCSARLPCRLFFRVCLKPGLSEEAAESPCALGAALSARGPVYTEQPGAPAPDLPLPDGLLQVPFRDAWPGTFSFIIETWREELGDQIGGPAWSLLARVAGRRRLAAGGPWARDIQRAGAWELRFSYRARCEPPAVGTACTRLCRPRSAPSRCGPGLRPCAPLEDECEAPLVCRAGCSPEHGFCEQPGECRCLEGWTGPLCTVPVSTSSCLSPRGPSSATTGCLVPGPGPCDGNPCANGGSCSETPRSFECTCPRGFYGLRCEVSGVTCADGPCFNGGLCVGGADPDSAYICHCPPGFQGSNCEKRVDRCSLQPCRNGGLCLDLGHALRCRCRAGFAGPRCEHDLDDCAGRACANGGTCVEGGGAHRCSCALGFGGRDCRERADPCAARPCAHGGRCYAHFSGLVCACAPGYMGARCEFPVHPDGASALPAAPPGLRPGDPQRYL
Assay: Antibody binning by competition on ForteBio RED
Assay type: binding
Source text: As to antibody binning, a ForteBio RED was used per manufacturer's instructions to identify competing antibodies that bound to the same or different bins. Briefly, a reference antibody (Ab1) was captured onto an anti-mouse capture chip, a high concentration of non-binding antibody was then used to block the chip and a baseline was collected. Monomeric, recombinant human DLL3-Flag (Adipogen International) was then captured by the specific antibody (Ab1) and the tip was dipped into a well with either the same antibody (Ab1) as a control or into a well with a different test antibody (Ab2). […] If no further binding occurred, as determined by comparing binding levels with the control Ab1, then Ab2 was determined to be in the same bin. As known in the art this process can be expanded to screen large libraries of unique antibodies using a full row of antibodies representing unique bins in a 96-well plate. […] Based on the apparent size of the DLL3 antigen (where the ECD is approximately 56 kD) and the resolution of the binning methodology employed, it is believed that the nine identified bins represent the majority of the bins present on the DLL3 extracellular antigen.

B1: SC16.23: murine anti-DLL3 monoclonal antibody, sequences in FIGS. 3A and 3B (antibody, V domains shown)
VL: QIVLTQSPAIMSASPGEKVTLTCSASSSVSSRYLYWYQQKPGSSPKLWIYSTSNLASGVPARFSGSGSGTSYSLIISSMEAEDAASYFCHQWSNYPLTFGAGTKLELK
VH: QVTLKESGPGILQPSQTLSLTCSFSGFSLSTSNTGIGWIRQPSGTGLEWLAHIWWNDDKYYNPSLKSRLTISKETSNNQVFLKITNVDTADTASYFCVQIGRDYSNYAWYFDVWGAGTTVTVSS
  bin relation to other antibodies: found not to bin with SC16.34 or SC16.56
